From patent US20230220589A1

What was measured:
[1] = molecular target: M44-modified P NTAA target peptides; assay: encoding assay; P2 I;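 further: fraction of recording tags encoded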
[2] = molecular target: M44-modified Q NTAA target peptides; assay: encoding assay; P2 M;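 further: fraction of recording tags encoded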
[3] = molecular target: M44-modified D NTAA target peptides; assay: encoding assay; P2 T;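 further: fraction of recording tags encoded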
[4] = molecular target: M44-modified S NTAA target peptides; assay: encoding assay; P2 T
[5] = molecular target: M17-modified A NTAA target peptides; assay: encoding assay; P2 I;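 further: fraction of recording tags encoded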
[6] = molecular target: M17-modified D NTAA target peptides; assay: encoding assay; P2 I;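 further: fraction of recording tags encoded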
[7] = molecular target: M17-modified E NTAA target peptides; assay: encoding assay; P2 I;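 further: fraction of recording tags encoded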
[8] = molecular target: M17-modified F NTAA target peptides; assay: encoding assay; P2 I;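 further: fraction of recording tags encoded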
[9] = molecular target: M17-modified G NTAA target peptides; assay: encoding assay; P2 I;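 further: fraction of recording tags encoded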
[10] = molecular target: M17-modified H NTAA target peptides; assay: encoding assay; P2 I;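 further: fraction of recording tags encoded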
[11] = molecular target: M17-modified I NTAA target peptides; assay: encoding assay; P2 I;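 further: fraction of recording tags encoded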
[12] = molecular target: M17-modified L NTAA target peptides; assay: encoding assay; P2 I;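 further: fraction of recording tags encoded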
[13] = molecular target: M17-modified M NTAA target peptides; assay: encoding assay; P2 I;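 further: fraction of recording tags encoded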
[14] = molecular target: M17-modified N NTAA target peptides; assay: encoding assay; P2 I;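 further: fraction of recording tags encoded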
[15] = molecular target: M17-modified P NTAA target peptides; assay: encoding assay; P2 I;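 further: fraction of recording tags encoded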
[16] = molecular target: M17-modified Q NTAA target peptides; assay: encoding assay; P2 I;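 further: fraction of recording tags encoded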
[17] = molecular target: M17-modified S NTAA target peptides; assay: encoding assay; P2 I;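 further: fraction of recording tags encoded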
[18] = molecular target: M17-modified T NTAA target peptides; assay: encoding assay; P2 I;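 further: fraction of recording tags encoded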
[19] = molecular target: M17-modified V NTAA target peptides; assay: encoding assay; P2 I;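 further: fraction of recording tags encoded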
[20] = molecular target: M17-modified W NTAA target peptides; assay: encoding assay; P2 I;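 further: fraction of recording tags encoded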
[21] = molecular target: M17-modified Y NTAA target peptides (M17-Y-P2-peptide); assay: encoding assay; P2 I;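 further: fraction of recording tags encoded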
[22] = molecular target: M17-modified A NTAA target peptides; assay: encoding assay; P2 L;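 further: fraction of recording tags encoded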
[23] = molecular target: M17-modified D NTAA target peptides; assay: encoding assay; P2 L;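 further: fraction of recording tags encoded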
[24] = molecular target: M17-modified E NTAA target peptides; assay: encoding assay; P2 L;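 further: fraction of recording tags encoded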
[25] = molecular target: M17-modified F NTAA target peptides; assay: encoding assay; P2 L;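 further: fraction of recording tags encoded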
[26] = molecular target: M17-modified G NTAA target peptides; assay: encoding assay; P2 L;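 further: fraction of recording tags encoded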
[27] = molecular target: M17-modified H NTAA target peptides; assay: encoding assay; P2 L;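 further: fraction of recording tags encoded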
[28] = molecular target: M17-modified I NTAA target peptides; assay: encoding assay; P2 L;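 further: fraction of recording tags encoded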
[29] = molecular target: M17-modified L NTAA target peptides; assay: encoding assay; P2 L;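 further: fraction of recording tags encoded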
[30] = molecular target: M17-modified M NTAA target peptides; assay: encoding assay; P2 L;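 further: fraction of recording tags encoded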
[31] = molecular target: M17-modified N NTAA target peptides; assay: encoding assay; P2 L;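 further: fraction of recording tags encoded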
[32] = molecular target: M17-modified P NTAA target peptides; assay: encoding assay; P2 L;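 further: fraction of recording tags encoded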
[33] = molecular target: M17-modified Q NTAA target peptides; assay: encoding assay; P2 L;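 further: fraction of recording tags encoded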
[34] = molecular target: M17-modified S NTAA target peptides; assay: encoding assay; P2 L;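 further: fraction of recording tags encoded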
[35] = molecular target: M17-modified T NTAA target peptides; assay: encoding assay; P2 L;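 further: fraction of recording tags encoded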
[36] = molecular target: M17-modified V NTAA target peptides; assay: encoding assay; P2 L;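 further: fraction of recording tags encoded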
[37] = molecular target: M17-modified W NTAA target peptides; assay: encoding assay; P2 L;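 further: fraction of recording tags encoded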
[38] = molecular target: M17-modified Y NTAA target peptides (M17-Y-P2-peptide); assay: encoding assay; P2 L;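 further: fraction of recording tags encoded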
[39] = molecular target: M17-modified E NTAA target peptides; assay: encoding assay; P2 M;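 further: fraction of recording tags encoded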
[40] = molecular target: M17-modified F NTAA target peptides; assay: encoding assay; P2 M;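 further: fraction of recording tags encoded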
[41] = molecular target: M17-modified H NTAA target peptides; assay: encoding assay; P2 M;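 further: fraction of recording tags encoded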
[42] = molecular target: M17-modified L NTAA target peptides; assay: encoding assay; P2 M;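 further: fraction of recording tags encoded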
[43] = molecular target: M17-modified P NTAA target peptides; assay: encoding assay; P2 M;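 further: fraction of recording tags encoded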
[44] = molecular target: M17-modified Q NTAA target peptides; assay: encoding assay; P2 M;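 further: fraction of recording tags encoded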
[45] = molecular target: M17-modified S NTAA target peptides; assay: encoding assay; P2 M;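 further: fraction of recording tags encoded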
[46] = molecular target: M17-modified V NTAA target peptides; assay: encoding assay; P2 M;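 further: fraction of recording tags encoded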
[47] = molecular target: M17-modified Y NTAA target peptides (M17-Y-P2-peptide); assay: encoding assay; P2 M;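 further: fraction of recording tags encoded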
[48] = molecular target: M17-modified L NTAA target peptides; assay: encoding assay; P2 T;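 further: fraction of recording tags encoded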
[49] = molecular target: M17-modified N NTAA target peptides; assay: encoding assay; P2 T;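 further: fraction of recording tags encoded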
[50] = molecular target: M17-modified P NTAA target peptides; assay: encoding assay; P2 T;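 further: fraction of recording tags encoded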
[51] = molecular target: M17-modified Q NTAA target peptides; assay: encoding assay; P2 T;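 further: fraction of recording tags encoded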
[52] = molecular target: M17-modified T NTAA target peptides; assay: encoding assay; P2 T;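 further: fraction of recording tags encoded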
[53] = molecular target: M17-modified W NTAA target peptides; assay: encoding assay; P2 T;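 further: fraction of recording tags encoded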
[54] = molecular target: M17-modified Y NTAA target peptides (M17-Y-P2-peptide); assay: encoding assay; P2 T;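 further: fraction of recording tags encoded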

B1: engineered M44-A binder (SEQ ID NO: 42) (designed binder, not shown: small tags and cut ends; large carriers)
chain: QVSVQPNFQQDKFLGRWFVAGLASNSSWDREKVAALSGAKMVVAPATDGGLNVTRTMLRKNQCETYTGLLQPAGSLGSYSWRSPHPGSTGSESVVETDYDQYALVYGQGSKGPGEDLRAAALWSRTQTPRAELKEKFTAFSKAQGFTEDTIVFLPQTDKCMTEQ
[1]
  encoding yield: 0.01
[2]
  encoding yield: 0.01
[3]
  encoding yield: 0.02
[4]
  encoding yield: 0.01

B2: engineered M17-Y binder (SEQ ID NO: 61) (designed binder, not shown: small tags and cut ends; large carriers)
chain: TVPDRSEIAGKWYVVALASNTEFYLREKDWVKSAMARISFLGEDELKVSSAVPSPNGCYKVERTWKKTSDDGEVYNSRAAKLKVEVLDTDYKSYAVIYATRVKDGRTDHQMILYSRSPEVSPAATAIFRKLAGERNYTDEMVAMLPRQEECTVDEV
[5]
  encoding yield: 0.02
[6]
  encoding yield: 0.02
[7]
  encoding yield: 0.03
[8]
  encoding yield: 0.03
[9]
  encoding yield: 0.01
[10]
  encoding yield: 0.04
[11]
  encoding yield: 0.05
[12]
  encoding yield: 0.02
[13]
  encoding yield: 0.01
[14]
  encoding yield: 0.03
[15]
  encoding yield: 0.01
[16]
  encoding yield: 0.02
[17]
  encoding yield: 0.01
[18]
  encoding yield: 0.01
[19]
  encoding yield: 0.03
[20]
  encoding yield: 0.02
[21]
  encoding yield: 0.17
[22]
  encoding yield: 0.02
[23]
  encoding yield: 0.02
[24]
  encoding yield: 0.03
[25]
  encoding yield: 0.04
[26]
  encoding yield: 0.02
[27]
  encoding yield: 0.02
[28]
  encoding yield: 0.01
[29]
  encoding yield: 0.06
[30]
  encoding yield: 0.03
[31]
  encoding yield: 0.03
[32]
  encoding yield: 0.02
[33]
  encoding yield: 0.02
[34]
  encoding yield: 0.03
[35]
  encoding yield: 0.01
[36]
  encoding yield: 0.02
[37]
  encoding yield: 0.01
[38]
  encoding yield: 0.17
[39]
  encoding yield: 0.02
[40]
  encoding yield: 0.03
[41]
  encoding yield: 0.01
[42]
  encoding yield: 0.02
[43]
  encoding yield: 0.02
[44]
  encoding yield: 0.01
[45]
  encoding yield: 0.01
[46]
  encoding yield: 0.03
[47]
  encoding yield: 0.1
[48]
  encoding yield: 0.04
[49]
  encoding yield: 0.02
[50]
  encoding yield: 0.01
[51]
  encoding yield: 0.03
[52]
  encoding yield: 0.02
[53]
  encoding yield: 0.01
[54]
  encoding yield: 0.14

B3: upgraded binder after additional maturation round (SEQ ID NO: 62) (designed binder, not shown: small tags and cut ends; large carriers)
chain: TVPDRSEIAGKWYVVALASNTEFYLRGKDRVKSAMVRISFQGEDELKVSSAVPSPNGCYKVERTWKKTSDDGEVYNSRAAKLKVEVLDTDYKSYAVIYATRVKDRRTDHQMILYSRSPDVSPAATAIFRKLAGERNYTDEMVAMLPRQEECTVDEV
[5]
  encoding yield: 0.03
[6]
  encoding yield: 0.02
[7]
  encoding yield: 0.03
[8]
  encoding yield: 0.05
[9]
  encoding yield: 0.02
[10]
  encoding yield: 0.04
[11]
  encoding yield: 0.08
[12]
  encoding yield: 0.05
[13]
  encoding yield: 0.02
[14]
  encoding yield: 0.03
[15]
  encoding yield: 0.01
[16]
  encoding yield: 0.03
[17]
  encoding yield: 0.02
[18]
  encoding yield: 0.02
[19]
  encoding yield: 0.05
[20]
  encoding yield: 0.04
[21]
  encoding yield: 0.31
[22]
  encoding yield: 0.02
[23]
  encoding yield: 0.02
[24]
  encoding yield: 0.03
[25]
  encoding yield: 0.08
[26]
  encoding yield: 0.02
[27]
  encoding yield: 0.04
[28]
  encoding yield: 0.06
[29]
  encoding yield: 0.12
[30]
  encoding yield: 0.03
[31]
  encoding yield: 0.03
[32]
  encoding yield: 0.03
[33]
  encoding yield: 0.03
[34]
  encoding yield: 0.03
[35]
  encoding yield: 0.02
[36]
  encoding yield: 0.04
[37]
  encoding yield: 0.04
[38]
  encoding yield: 0.29
[39]
  encoding yield: 0.03
[40]
  encoding yield: 0.06
[41]
  encoding yield: 0.01
[42]
  encoding yield: 0.04
[43]
  encoding yield: 0.03
[44]
  encoding yield: 0.01
[45]
  encoding yield: 0.01
[46]
  encoding yield: 0.03
[47]
  encoding yield: 0.23
[48]
  encoding yield: 0.08
[49]
  encoding yield: 0.02
[50]
  encoding yield: 0.01
[51]
  encoding yield: 0.02
[52]
  encoding yield: 0.04
[53]
  encoding yield: 0.02
[54]
  encoding yield: 0.24

B4: engineered M44-L binder (SEQ ID NO: 31) (designed binder, not shown: small tags and cut ends; large carriers)
chain: QDSTQNLIPAPPLISVPLQPGFWTERFQGRWFLVGFAGNAVQKERQSRLTMQSLILELQEDNSYNITAINVRGQGCRYIISTLVPSSRPGQFTLGNIHSYPQIQSLDVQVADTDYDQFAMVFLQGTSENKQYFEVALAGRTKGLSDELKERFVSFAKSLGLKDNNIVFSVPTDQCIDN
[1]
  encoding yield: 0.01
[2]
  encoding yield: 0.01
[3]
  encoding yield: 0.01
[4]
  encoding yield: 0.01
